Among the data in PMC12990809 are binding signal (z-score (mean of top ten 7-mers)) values, retold here.

Assay in all cases: pulldown
What all share (details): 20 nM protein, 1.5 uM RNA pool; 20 mM HEPES pH 7.8, 70 mM KCl, 10 mM NaCl, 10% glycerol, 2 mM DTT, 0.1 ug/uL BSA; 30 min, 4 C

One data set concerns the target T1, RBM45 (Homo sapiens) (UniProt Q8IUH3).
T1 sequence: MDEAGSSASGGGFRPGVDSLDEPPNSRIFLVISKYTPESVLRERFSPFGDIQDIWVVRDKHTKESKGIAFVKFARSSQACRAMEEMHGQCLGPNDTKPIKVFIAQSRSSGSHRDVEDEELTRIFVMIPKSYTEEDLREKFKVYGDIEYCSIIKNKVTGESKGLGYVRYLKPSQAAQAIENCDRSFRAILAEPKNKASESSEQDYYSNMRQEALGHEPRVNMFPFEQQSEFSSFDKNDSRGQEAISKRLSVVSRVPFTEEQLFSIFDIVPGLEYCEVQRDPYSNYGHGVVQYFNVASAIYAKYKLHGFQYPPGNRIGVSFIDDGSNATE

In data set [1] the target is T2, tdp-1 (Caenorhabditis elegans) (UniProt D0VWM8).
T2 sequence: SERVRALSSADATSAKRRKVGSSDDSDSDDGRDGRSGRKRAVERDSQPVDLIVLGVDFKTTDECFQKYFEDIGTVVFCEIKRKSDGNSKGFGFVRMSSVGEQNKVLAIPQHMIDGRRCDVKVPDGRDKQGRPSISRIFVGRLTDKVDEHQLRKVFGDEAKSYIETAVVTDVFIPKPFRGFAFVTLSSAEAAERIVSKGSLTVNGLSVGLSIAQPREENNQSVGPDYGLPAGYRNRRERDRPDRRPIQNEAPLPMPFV

The target in data set [2] is T3, CG4806 (Drosophila melanogaster) (UniProt Q3ZAN6).
T3 sequence: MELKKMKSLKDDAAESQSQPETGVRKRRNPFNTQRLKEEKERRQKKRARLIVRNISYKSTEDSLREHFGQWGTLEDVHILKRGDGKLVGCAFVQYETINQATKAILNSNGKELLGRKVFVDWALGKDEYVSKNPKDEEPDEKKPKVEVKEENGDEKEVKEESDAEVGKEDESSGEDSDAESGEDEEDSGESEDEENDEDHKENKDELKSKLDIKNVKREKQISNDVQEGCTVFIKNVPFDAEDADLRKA

For another data set, the target named is ELAVL2 (Homo sapiens) (UniProt Q12926).
ELAVL2 (Homo sapiens), sequence (Q12926 1-189): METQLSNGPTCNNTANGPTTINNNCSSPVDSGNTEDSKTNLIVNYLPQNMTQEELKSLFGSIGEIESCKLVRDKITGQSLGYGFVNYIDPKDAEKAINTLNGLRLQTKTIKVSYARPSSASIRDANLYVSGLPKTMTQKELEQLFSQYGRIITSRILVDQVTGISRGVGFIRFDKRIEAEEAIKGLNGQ
Data set [3] concerns the target T4, PFE0865c (Plasmodium falciparum) (UniProt Q8I3T5).
T4 sequence: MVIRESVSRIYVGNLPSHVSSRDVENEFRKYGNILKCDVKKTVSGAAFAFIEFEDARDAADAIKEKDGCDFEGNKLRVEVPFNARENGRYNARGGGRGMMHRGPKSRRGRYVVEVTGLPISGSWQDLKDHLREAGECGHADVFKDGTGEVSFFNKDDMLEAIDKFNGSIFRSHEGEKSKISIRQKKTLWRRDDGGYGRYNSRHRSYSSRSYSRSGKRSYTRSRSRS

In the next data set the target is T5, ESRP1 (Homo sapiens) (UniProt Q6NXG1).
T5 sequence: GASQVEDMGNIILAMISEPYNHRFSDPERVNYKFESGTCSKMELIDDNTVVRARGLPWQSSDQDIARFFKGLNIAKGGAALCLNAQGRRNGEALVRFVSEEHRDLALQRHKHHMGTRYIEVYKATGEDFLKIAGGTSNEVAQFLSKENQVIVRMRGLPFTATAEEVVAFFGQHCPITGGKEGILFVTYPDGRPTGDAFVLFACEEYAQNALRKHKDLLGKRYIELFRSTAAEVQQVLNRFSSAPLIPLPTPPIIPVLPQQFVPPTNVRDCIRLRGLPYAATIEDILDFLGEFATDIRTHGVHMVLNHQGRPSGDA

Data set [4] concerns the target T6, sart3 (Tetraodon nigroviridis) (UniProt H3DEK9).
T6 sequence: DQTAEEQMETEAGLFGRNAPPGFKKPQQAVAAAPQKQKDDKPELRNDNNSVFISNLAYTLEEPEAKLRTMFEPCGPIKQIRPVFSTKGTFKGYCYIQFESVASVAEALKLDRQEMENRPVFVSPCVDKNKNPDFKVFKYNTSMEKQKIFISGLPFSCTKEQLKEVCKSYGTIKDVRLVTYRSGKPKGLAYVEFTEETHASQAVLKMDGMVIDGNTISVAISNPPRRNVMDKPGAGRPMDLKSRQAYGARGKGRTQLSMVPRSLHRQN

Data set [5] has as its target T7, PK00353.1 del132-144;P293S (Cannabis sativa) (UniProt A0A7J6GFS8).
T7 sequence: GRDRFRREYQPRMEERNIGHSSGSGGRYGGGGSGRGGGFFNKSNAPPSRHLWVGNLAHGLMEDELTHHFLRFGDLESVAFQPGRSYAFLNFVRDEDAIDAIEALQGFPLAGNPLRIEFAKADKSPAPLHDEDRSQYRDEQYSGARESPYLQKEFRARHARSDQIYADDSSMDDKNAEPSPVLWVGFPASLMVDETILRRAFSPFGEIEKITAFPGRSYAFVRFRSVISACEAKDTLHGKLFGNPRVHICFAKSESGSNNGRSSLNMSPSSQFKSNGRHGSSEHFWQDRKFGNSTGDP

For a further data set, the target named is T8, TRNAU1AP (Homo sapiens) (UniProt Q9NX07).
T8 sequence: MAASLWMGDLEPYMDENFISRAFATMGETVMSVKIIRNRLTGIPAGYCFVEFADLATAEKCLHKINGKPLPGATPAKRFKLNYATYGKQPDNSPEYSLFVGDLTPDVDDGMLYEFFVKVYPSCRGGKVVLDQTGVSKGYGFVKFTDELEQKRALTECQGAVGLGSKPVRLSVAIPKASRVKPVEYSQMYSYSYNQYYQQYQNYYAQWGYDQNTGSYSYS

As for GACAGA [RNAcompete motif RNCMPT00805], in the data set with RBM45 (Homo sapiens), the binding signal (z-score (mean of top ten 7-mers)) amounted to 12.2. GAGAGA [RNAcompete motif RNCMPT00816] came in with a binding signal (z-score (mean of top ten 7-mers)) in data set [1] of 11.6. On to CUGUAGUA [RNAcompete motif RNCMPT00784], for which the binding signal (z-score (mean of top ten 7-mers)) in data set [2] was 7.2. Sequence UUAUUUU [RNAcompete motif RNCMPT00814] displayed a binding signal (z-score (mean of top ten 7-mers)) in the data set with ELAVL2 (Homo sapiens) of 15.1.

Turning to GAUGAAC [RNAcompete motif RNCMPT00800], in data set [3], the binding signal (z-score (mean of top ten 7-mers)) was 6.53. In the data set with ESRP1 (Homo sapiens), GGAUGGGG [RNAcompete motif RNCMPT00808] came in with a binding signal (z-score (mean of top ten 7-mers)) of 6.61. In turn, AGAGAAG [RNAcompete motif RNCMPT00774] yielded a binding signal (z-score (mean of top ten 7-mers)) in [4] of 11.5. In [5], CAAAGCA [RNAcompete motif RNCMPT00789] had a binding signal (z-score (mean of top ten 7-mers)) of 7.23.

AAUUU [RNAcompete motif RNCMPT00813] showed a binding signal (z-score (mean of top ten 7-mers)) with TRNAU1AP (Homo sapiens) of 7.72.
